Sequences and labels used below:
B2: IL-33 (residues 112-270) (ligand, UniProt O95760 112-270, looked up)
chain: SITGISPITEYLASLSTYNDQSITFALEDESYEIYVEDLKKDEKKDKVLLSYYESQHPSNESGDGVDGKMLMVTLSPTKDFWLHANNKEHSVELHKCEKPLPDQAFFVLHNMHSNCVSFECKTDPGVFIGVKDNHLALIKVDSSENLCTENILFKLSET
notes: Interleukin-33, residues 112-270; Used unlabelled as the analyte in BLI; source: E. coli Rosetta2 (DE3), purified (Ni-NTA, TEV cleavage, second Ni-NTA, Superdex 75); not shown: His6, N-terminal, cleaved

Like-named read-outs stand apart in the source and are kept apart here. Bounds are passed on as bounds.

Assay [1] deals with IL-1β (Homo sapiens) (UniProt P01584). To be noted: cited from earlier work.
The target in assay [2] is IL-33 (Homo sapiens) (UniProt O95760). Briefly: ITC. Particulars: cited from earlier work.
Assay [3] deals with IL-1α (Homo sapiens) (UniProt P01583). To be noted: cited from earlier work.
Assay [4] addresses IL-1Ra (Homo sapiens) (UniProt P18510). To be noted: cited from earlier work.
Assay [5] addresses IL-1β (Homo sapiens) (UniProt P01584). Particulars: cited from earlier work. This is another data set of the same source.
Assay [6] deals with B2. Briefly: BLI; OctetRED96; biotinylated ST2 loaded on streptavidin sensors (20 ug/mL, 10 min), serial dilutions of IL-33 in solution; 25 C; 10 mM HEPES pH 7.5, 150 mM NaCl, 0.005% Tween 20, 100 uM EDTA; 1:1 binding model, KD calculated from kon and koff. Particulars: both partners purified.
In assay [7] the target is ST2 D1-D2 domain (sequence 19-206) (UniProt Q01638 19-206, biotinylated with Biotin-PEO4 linker (equimolar ratio)). Described as above. To be noted: both partners purified.

Sequence of IL-1β (Homo sapiens) (P01584 117-269): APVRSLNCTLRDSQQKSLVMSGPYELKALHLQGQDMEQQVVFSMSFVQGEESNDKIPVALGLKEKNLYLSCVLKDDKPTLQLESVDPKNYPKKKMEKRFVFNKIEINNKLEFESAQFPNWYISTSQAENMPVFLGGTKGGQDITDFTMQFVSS
Sequence of IL-1α (Homo sapiens) (P01583 113-271): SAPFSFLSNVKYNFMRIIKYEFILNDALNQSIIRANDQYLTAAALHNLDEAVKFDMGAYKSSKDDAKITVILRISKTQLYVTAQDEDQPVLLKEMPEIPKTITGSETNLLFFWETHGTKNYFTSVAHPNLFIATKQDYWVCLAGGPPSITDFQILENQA
Sequence of IL-1Ra (Homo sapiens) (P18510 26-177): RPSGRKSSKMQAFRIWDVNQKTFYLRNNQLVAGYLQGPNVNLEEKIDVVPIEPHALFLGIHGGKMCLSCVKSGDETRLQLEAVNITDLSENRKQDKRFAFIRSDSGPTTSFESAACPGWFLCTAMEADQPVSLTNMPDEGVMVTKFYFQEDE

IL-1R1 D1-D3 (from UniProt P14778): in assay [1], the Kd (in general, the free concentration of one partner at which half of the binding sites on the other are occupied at equilibrium, for simple one-to-one binding) is 0.002 µM.

For ST2 ECD (from UniProt Q01638), the Kd in assay [2] was 0.005 µM.

On to IL-1R1 D1-D2 (from UniProt P14778), for which the Kd in assay [3] was 7 µM; in assay [4], 0.028 µM; in assay [5], > 10 µM.

B1: ST2 ectodomain, D1-D3 domains (sequence 19-323) (domain or fragment)
chain: KFSKQSWGLENEALIVRCPRQGKPSYTVDWYYSQTNKSIPTQERNRVFASGQLLKFLPAAVADSGIYTCIVRSPTFNRTGYANVTIYKKQSDCNVPDYLMYSTVSGSEKNSKIYCPTIDLYNWTAPLEWFKNCQALQGSRYRAHKSFLVIDNVMTEDAGDYTCKFIHNENGANYSVTATRSFTVKDEQGFSLFPVIGAPAQNEIKEVEIGKNANLTCSACFGKGTQFLAAVLWQLNGTKITDFGEPRIQQEEGQNQSFSNGLACLDMVLRIADVKEEDLLLQYDCLALNLHGLRRHTVRLSRKNP
modifications: biotinylated with Biotin-PEO4 linker (equimolar ratio)
In the case of B1, in assay [6], the Kd is 0.00223 µM, the koff (commonly a measure of how fast the partners let go of each other) was 0.00115 s⁻¹ and the association rate constant (kon) (commonly a measure of how fast the partners come together) is 516000 M⁻¹ s⁻¹.

Regarding B2, in assay [7], the equilibrium dissociation constant (Kd) is 0.0651 µM, the off-rate constant (koff) was 0.215 s⁻¹ and the on-rate (kon) is 3.3e+06 M⁻¹ s⁻¹.

Source of the values: paper PMC4703388, “Conformational Sampling and Binding Site Assessment of Suppression of Tumorigenicity 2 Ectodomain” (PLoS ONE, 2016).
